The labels stand for the following.
B1: NP_002788.1 (parent)
chain: DGWIRVSSDNVADLHEKYSGSTP
B2: USP39 (parent)
chain: FVEKNPTIVNFPITNVDLREYLSE

In the supplement of paper PMC10567573 one finds protein stability index data, which are given here for 94 variants.

Variants of B1 are the subject of the first series. The series can be described thus: protein stability index of a GFP-peptide fusion (GPS, HEK-293T) (PSI 1-6); higher = more stable. Particulars: c terminus: native.
As for DGWIRVSSDNVADLHEKYSGSTY [P23Y], the protein stability index was 4.27. Consider DGWIRVSSDNVADLHEKYSGSTG [P23G], for which the protein stability index turned out to be 4.43.

As to DGWIRVSSDNVADLHEKYSGSTS [P23S], the protein stability index was 5.

With DGWIRVSSDNVADLHEKYSGSTT [P23T], the protein stability index was 4.51. The same measure, in the same setting: the result for DGWIRVSSDNVADLHEKYSGSTA [P23A] reads 4.55; that for DGWIRVSSDNVADLHEKYSGSTK [P23K], 5.05; that for DGWIRVSSDNVADLHEKYSGSTF [P23F], 4.29. Regarding DGWIRVSSDNVADLHEKYSGSTV [P23V], the protein stability index stood at 4.02. The same measure, in the same setting: with DGWIRVSSDNVADLHEKYSGSTD [P23D] the figure was 5.08. As to DGWIRVSSDNVADLHEKYSGSTH [P23H], the protein stability index stood at 4.63. In the case of DGWIRVSSDNVADLHEKYSGSTR [P23R], the protein stability index was 3.78. Turning to DGWIRVSSDNVADLHEKYSGSTI [P23I], the protein stability index came out at 3.13. As to DGWIRVSSDNVADLHEKYSGSTQ [P23Q], the protein stability index is 4.78. The same measure, in the same setting: the result for DGWIRVSSDNVADLHEKYSGSTW [P23W] reads 3.31. Turning to DGWIRVSSDNVADLHEKYSGSTC [P23C], the protein stability index is 4.56. DGWIRVSSDNVADLHEKYSGSTM [P23M]: the protein stability index was determined as 3.41. Turning to DGWIRVSSDNVADLHEKYSGSTE [P23E], the protein stability index worked out at 5.11.

With DGWIRVSSDNVADLHEKYSGSTL [P23L], the protein stability index came out at 3.93. Regarding DGWIRVSSDNVADLHEKYSGSTN [P23N], the protein stability index was found to be 4.71. Regarding DGWIRVSSDNVADLHEKYSGSKP [T22K], the protein stability index came to 4.96. On to DGWIRVSSDNVADLHEKYSGSPP [T22P], for which the protein stability index came to 4.85. In the case of DGWIRVSSDNVADLHEKYSGSNP [T22N], the protein stability index worked out at 4.05. For the variant DGWIRVSSDNVADLHEKYSGSAP [T22A], the protein stability index is 3.29. Consider DGWIRVSSDNVADLHEKYSGSIP [T22I], for which the protein stability index was determined as 2.31. The same measure, in the same setting: with DGWIRVSSDNVADLHEKYSGSCP [T22C] the figure was 2.36. Take DGWIRVSSDNVADLHEKYSGSVP [T22V]: the protein stability index stood at 2.46. As to DGWIRVSSDNVADLHEKYSGSQP [T22Q], the protein stability index turned out to be 2.78. As to DGWIRVSSDNVADLHEKYSGSEP [T22E], the protein stability index came out at 2.64. In the case of DGWIRVSSDNVADLHEKYSGSYP [T22Y], the protein stability index is 2.63. For DGWIRVSSDNVADLHEKYSGSSP [T22S], the protein stability index was 3.1.

As to DGWIRVSSDNVADLHEKYSGSGP [T22G], the protein stability index came out at 2.58.

Regarding DGWIRVSSDNVADLHEKYSGSDP [T22D], the protein stability index worked out at 2.98. Take DGWIRVSSDNVADLHEKYSGSLP [T22L]: the protein stability index was 2.28. Take DGWIRVSSDNVADLHEKYSGSRP [T22R]: the protein stability index came out at 3.98. For DGWIRVSSDNVADLHEKYSGSWP [T22W], the protein stability index is 2.81. Consider DGWIRVSSDNVADLHEKYSGSHP [T22H], for which the protein stability index amounted to 3.06. As for DGWIRVSSDNVADLHEKYSGSMP [T22M], the protein stability index worked out at 2.

On to DGWIRVSSDNVADLHEKYSGSFP [T22F], for which the protein stability index was 2.12. As to DGWIRVSSDNVADLHEKYSGWTP [S21W], the protein stability index is 3.02. Take DGWIRVSSDNVADLHEKYSGTTP [S21T]: the protein stability index came out at 2.19. As to DGWIRVSSDNVADLHEKYSGRTP [S21R], the protein stability index was 2.16.

For the variant DGWIRVSSDNVADLHEKYSGYTP [S21Y], the protein stability index came to 2.26. Turning to DGWIRVSSDNVADLHEKYSGVTP [S21V], the protein stability index came out at 1.83.

In another series the parent is B2. Described as above. Particulars: c terminus: a fixed tail appended.
HVEKNPTIVNFPITNVDLREYLSE [F1H]: the protein stability index was determined as 4.01. For the variant KVEKNPTIVNFPITNVDLREYLSE [F1K], the protein stability index was found to be 4.34. Regarding EVEKNPTIVNFPITNVDLREYLSE [F1E], the protein stability index is 4.26. TVEKNPTIVNFPITNVDLREYLSE [F1T]: the protein stability index is 3.87. For the variant QVEKNPTIVNFPITNVDLREYLSE [F1Q], the protein stability index was found to be 3.71. With MVEKNPTIVNFPITNVDLREYLSE [F1M], the protein stability index is 3.36.

For GVEKNPTIVNFPITNVDLREYLSE [F1G], the protein stability index is 3.26. In the case of NVEKNPTIVNFPITNVDLREYLSE [F1N], the protein stability index stood at 4.08. On the same count and under the same terms, the result for IVEKNPTIVNFPITNVDLREYLSE [F1I] reads 3.4; that for YVEKNPTIVNFPITNVDLREYLSE [F1Y], 1.99; that for DVEKNPTIVNFPITNVDLREYLSE [F1D], 4.5. On the same count and under the same terms, with VVEKNPTIVNFPITNVDLREYLSE [F1V] the figure was 3.89. Regarding CVEKNPTIVNFPITNVDLREYLSE [F1C], the protein stability index is 2.87. As for LVEKNPTIVNFPITNVDLREYLSE [F1L], the protein stability index is 3.95.

For the variant SVEKNPTIVNFPITNVDLREYLSE [F1S], the protein stability index came out at 4.11.

For the variant WVEKNPTIVNFPITNVDLREYLSE [F1W], the protein stability index worked out at 2.49. With RVEKNPTIVNFPITNVDLREYLSE [F1R], the protein stability index was found to be 3.78.

Take PVEKNPTIVNFPITNVDLREYLSE [F1P]: the protein stability index was 3.85.

Take AVEKNPTIVNFPITNVDLREYLSE [F1A]: the protein stability index was 3.59.

On to FVEKNPTAVNFPITNVDLREYLSE [I8A], for which the protein stability index is 1.82. In the case of FVEKNPTKVNFPITNVDLREYLSE [I8K], the protein stability index worked out at 2.04. For FVEKNPTHVNFPITNVDLREYLSE [I8H], the protein stability index amounted to 2.12. Turning to FVEKNPTCVNFPITNVDLREYLSE [I8C], the protein stability index was found to be 2.02. On to FVEKNPTEVNFPITNVDLREYLSE [I8E], for which the protein stability index was 2.67.

With FVEKNPTLVNFPITNVDLREYLSE [I8L], the protein stability index was 2.81.

Regarding FVEKNPTGVNFPITNVDLREYLSE [I8G], the protein stability index came out at 1.91. The same measure, in the same setting: with FVEKNPTMVNFPITNVDLREYLSE [I8M] the figure was 1.25; with FVEKNPTYVNFPITNVDLREYLSE [I8Y], 1.55. With FVEKNPTPVNFPITNVDLREYLSE [I8P], the protein stability index came to 2.76.

Consider FVEKNPTNVNFPITNVDLREYLSE [I8N], for which the protein stability index was 2.1. On the same count and under the same terms, with FVEKNPTQVNFPITNVDLREYLSE [I8Q] the figure was 2.54; with FVEKNPTRVNFPITNVDLREYLSE [I8R], 2.56; with FVEKNPTTVNFPITNVDLREYLSE [I8T], 3.34.

In the case of FVEKNPTWVNFPITNVDLREYLSE [I8W], the protein stability index is 2.96.

On to FVEKNPTVVNFPITNVDLREYLSE [I8V], for which the protein stability index was found to be 1.89. With FVEKNPTSVNFPITNVDLREYLSE [I8S], the protein stability index worked out at 2.89. Still for that read-out and setting: the result for FVEKNPTDVNFPITNVDLREYLSE [I8D] reads 2.77; that for FVEKNPTFVNFPITNVDLREYLSE [I8F], 2.25. On to FVEKNPRIVNFPITNVDLREYLSE [T7R], for which the protein stability index worked out at 1.98. For the variant FVEKNPNIVNFPITNVDLREYLSE [T7N], the protein stability index was found to be 2.39. As for FVEKNPFIVNFPITNVDLREYLSE [T7F], the protein stability index was 1.8. As for FVEKNPPIVNFPITNVDLREYLSE [T7P], the protein stability index was 1.55.

Turning to FVEKNPKIVNFPITNVDLREYLSE [T7K], the protein stability index was found to be 1.74. In the case of FVEKNPAIVNFPITNVDLREYLSE [T7A], the protein stability index was found to be 1.8. In the case of FVEKNPSIVNFPITNVDLREYLSE [T7S], the protein stability index stood at 1.5. On the same count and under the same terms, with FVEKNPQIVNFPITNVDLREYLSE [T7Q] the figure was 1.81.

FVEKNPLIVNFPITNVDLREYLSE [T7L]: the protein stability index stood at 2.02. On the same count and under the same terms, with FVEKNPDIVNFPITNVDLREYLSE [T7D] the figure was 2.15; with FVEKNPEIVNFPITNVDLREYLSE [T7E], 2. For FVEKNPYIVNFPITNVDLREYLSE [T7Y], the protein stability index is 3.42.

For FVEKNPHIVNFPITNVDLREYLSE [T7H], the protein stability index came to 1.69.
